Test results taken from PMC6327041, “Histone H3 binding to the PHD1 domain of histone demethylase KDM5A enables active site remodeling” (Nature Communications, 2019).

Molecular target: KDM5A PHD1 domain, S287-K347 (UniProt P29375)
Test: competition fluorescence polarization
Settings: reference: unmodified H3 10mer peptide

KDM5A PHD1 domain, S287-K347, sequence (P29375 whole entry, looked up, the tested form may be a part): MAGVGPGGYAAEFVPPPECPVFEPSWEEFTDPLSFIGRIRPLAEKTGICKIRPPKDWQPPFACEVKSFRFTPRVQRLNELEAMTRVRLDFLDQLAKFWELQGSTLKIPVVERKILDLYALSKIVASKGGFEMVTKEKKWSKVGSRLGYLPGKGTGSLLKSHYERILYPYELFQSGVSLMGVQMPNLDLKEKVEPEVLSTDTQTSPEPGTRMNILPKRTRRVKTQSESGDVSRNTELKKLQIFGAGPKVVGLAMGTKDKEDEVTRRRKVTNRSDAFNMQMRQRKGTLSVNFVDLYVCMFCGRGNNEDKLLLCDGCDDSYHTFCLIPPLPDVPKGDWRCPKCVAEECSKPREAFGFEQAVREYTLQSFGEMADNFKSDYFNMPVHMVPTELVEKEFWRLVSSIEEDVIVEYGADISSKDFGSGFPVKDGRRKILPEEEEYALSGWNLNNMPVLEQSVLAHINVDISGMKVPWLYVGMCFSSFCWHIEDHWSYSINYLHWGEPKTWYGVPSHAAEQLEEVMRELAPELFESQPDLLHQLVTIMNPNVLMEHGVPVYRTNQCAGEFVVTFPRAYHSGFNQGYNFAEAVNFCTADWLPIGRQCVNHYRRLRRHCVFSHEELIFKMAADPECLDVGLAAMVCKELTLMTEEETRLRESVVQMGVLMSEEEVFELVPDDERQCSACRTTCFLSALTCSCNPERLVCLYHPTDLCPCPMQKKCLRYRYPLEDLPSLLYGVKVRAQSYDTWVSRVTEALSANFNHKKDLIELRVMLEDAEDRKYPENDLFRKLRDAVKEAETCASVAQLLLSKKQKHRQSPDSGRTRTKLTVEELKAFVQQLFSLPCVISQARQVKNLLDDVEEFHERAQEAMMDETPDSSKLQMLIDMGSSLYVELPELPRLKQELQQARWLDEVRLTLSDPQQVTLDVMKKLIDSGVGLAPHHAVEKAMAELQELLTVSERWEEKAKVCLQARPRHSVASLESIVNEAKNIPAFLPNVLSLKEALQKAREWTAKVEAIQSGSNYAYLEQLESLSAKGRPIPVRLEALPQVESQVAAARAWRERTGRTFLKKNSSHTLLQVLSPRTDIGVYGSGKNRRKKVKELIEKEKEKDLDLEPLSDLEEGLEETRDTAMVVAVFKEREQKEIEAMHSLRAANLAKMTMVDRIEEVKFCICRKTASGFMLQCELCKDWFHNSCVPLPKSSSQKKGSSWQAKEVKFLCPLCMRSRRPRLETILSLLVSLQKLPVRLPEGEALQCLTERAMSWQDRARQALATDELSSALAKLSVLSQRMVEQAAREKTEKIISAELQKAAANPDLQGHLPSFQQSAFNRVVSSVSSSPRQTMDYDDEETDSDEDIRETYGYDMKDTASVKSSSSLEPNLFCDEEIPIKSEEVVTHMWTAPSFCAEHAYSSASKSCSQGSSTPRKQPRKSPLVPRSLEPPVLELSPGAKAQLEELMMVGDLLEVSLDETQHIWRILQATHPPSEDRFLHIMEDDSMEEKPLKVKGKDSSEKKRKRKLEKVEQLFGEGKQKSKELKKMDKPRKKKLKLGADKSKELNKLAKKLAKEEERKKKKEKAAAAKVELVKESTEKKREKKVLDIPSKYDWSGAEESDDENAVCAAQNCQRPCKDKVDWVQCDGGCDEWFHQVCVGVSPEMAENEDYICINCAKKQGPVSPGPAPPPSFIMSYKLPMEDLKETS

Substance	binding against the reference (sites T3)	binding against the reference (sites T6)
histone H3 (N-terminal tail peptide) N-terminal tail 10mer, 1-10 (from UniProt P68431) H3T3ph 10mer peptide	weaker	–
histone H3 (N-terminal tail peptide) N-terminal tail 10mer, 1-10 (from UniProt P68431) H3T6ph 10mer peptide	–	weaker
